These results are taken from patent US20230129258A1, “HETEROTANDEM BICYCLIC PEPTIDE COMPLEXES” (BicycleTx Limited, priority 2019, published 2023).

Starred links: 1 amine or outer side, 2 acyl side, 3 side chain; linkers in the order of their positions; H or OH if unused. Positions of bridges follow the written chain, without caps; N, C: chain ends. Non-standard residues stand in square brackets, D forms with d. Primed or numbered codes have the meaning given here. Chains are numbered I, II in the order given. No end group written: not given here. *: point of attachment. X1 = O=C(CCOCCOCCOCCN(CCOCCOCCOCCn1cc(CCC(=O)[*:2])nn1)CCOCCOCCOCCn1cc(CCC(=O)[*:3])nn1)[*:1]; PYA″ = 4-pentynoic acid, acylating the D-Lys side chain, alkyne clicked to the linker azide; PYA(3) = 4-pentynoic acid, on D-Lys NZ, clicked (triazole) to the linker azide; TATA = O=C(CC[*:1])N1CN(C(=O)CC[*:2])CN(C(=O)CC[*:3])C1; Ala(4-thiazolyl) = N[C@@H](Cc1cscn1)C(=O)O; γGlu = O=C(O)[C@H](CCC(=O)[*:2])N[*:1]; His(τ-Me) = Cn1cnc(C[C@H](N)C(=O)O)c1; Palmitoyl = CCCCCCCCCCCCCCCC(=O)*; Hyp = O=C(O)[C@@H]1C[C@@H](O)CN1; hArg = N=C(N)NCCCC[C@H](N)C(=O)O; tBuAla = CC(C)(C)C[C@H](N)C(=O)O; Cysteamide = C(CS[*:3])N[*:1]; dK(PYA) = not defined here; Nle = CCCC[C@H](N)C(=O)O; Pent4ynoyl = C#CCCC(=O)*; Mpa = O=C(O)CCS

The target in this data set is CD137 (Homo sapiens, UniProt Q07011). The experiment in a line: CD137 reporter assay (Promega, Jurkat cells) in co-culture with EphA2-expressing tumor cells (A549, PC3, HT29). As to conditions: for Fold Improvement over BCY9173, EC50 (nM) / Fold Improvement over Emax: co-culture with PC3; for Fold Improvement over Emax: versus BCY9173; for fold induction: CD137 reporter coculture assay with PC3 tumor cells, read-out: Emax (fold induction over background); for EC50: EC50, CD137 reporter coculture assay with PC3 tumor cells. In kind it is cell-based. Also noted: host or cells: Jurkat reporter cells. Here is the method: Culture medium, referred to as R1 media, is prepared by adding 1% FBS to RPMI-1640 (component of Promega kit CS196005). Serial dilutions of test articles in R1 are prepared in a sterile 96 well-plate. Add 25 μL per well of test articles or R1 (as a background control) to designated wells in a white cell culture plate. Tumor cells* are harvested and resuspended at a concentration of 400,000 cells/mL in R1 media. Twenty five (25) μL/well of tumor cells are added to the white cell culture plate. Jurkat cells (Promega kit CS196005, 0.5 mL) are thawed in the water bath and then added to 5 ml pre-warmed R1 media. Twenty five (25) μL/well of Jurkat cells are then added to the white cell culture plate. Incubate the cells and test articles for 6 h at 37° C., 5% CO2. At the end of 6 h, add 75 μL/well Bio-Glo™ reagent (Promega) and incubate for 10 min before reading luminescence in a plate reader (Clariostar, BMG). The fold change relative to cells alone (Jurkat cells+Cell line used in co-culture) is calculated and plotted in GraphPad Prism as log(agonist) vs response to determine EC50 (nM) and Fold Induction over background (Max).
CD137, sequence (Q07011 24-255): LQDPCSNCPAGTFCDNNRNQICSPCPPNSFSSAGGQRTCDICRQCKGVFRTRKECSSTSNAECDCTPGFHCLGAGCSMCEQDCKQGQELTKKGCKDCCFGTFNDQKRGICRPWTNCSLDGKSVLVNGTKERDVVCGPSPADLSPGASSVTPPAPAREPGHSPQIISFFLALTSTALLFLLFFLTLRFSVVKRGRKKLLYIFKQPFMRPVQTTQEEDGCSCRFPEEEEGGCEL
The tumor cell types used in co-culture for EphA2 are A549, PC3 and HT29. The tumor cell type used in co-culture for PD-L1 is RKO.
(In a reporter assay the amount or activity of a reporter protein is the signal.)

Consider “BCY12725: EphA2:CD137 1:2; BCY9594 + 2x BCY12147; linker N-(acid-PEG3)-N-bis(PEG3-azide) (peptide 1 A[hArg]DC[Hyp]LVNPLCLHP[dD]W[hArg]C; peptide 2 Ac-C[tBuAla]PE[dK](PYA(3))PYCFANPY[Nle]C; linker I:4-I:11-I:18, II:1-II:8-II:15 via TATA; not fully specified (N-terminus, bridges); also: chain 2 present twice on linker, EphA2:CD137 1:2)”, for which the “Fold Improvement over BCY9173, EC50 (nM)” value is given as 0.1 fold and the “Fold Improvement over Emax” value is recorded as 0.7 fold.
Take “BCY12726: EphA2:CD137 1:2; BCY9594 + 2x BCY12145; linker N-(acid-PEG3)-N-bis(PEG3-azide) (peptide 1 A[hArg]DC[Hyp]LVNPLCLHP[dD]W[hArg]C; peptide 2 Ac-C[tBuAla]PE[dK(PYA)]PYCFAEPY[Nle]C; linker I:4-I:11-I:18 via TATA (inferred); linker II:1-II:8-II:15 via TATA; linker II:N-II:5 via N‑(acid-PEG3)‑N‑bis(PEG3-azide); not fully specified (N-terminus); reading uncertain; also: chain 2 twice (1:2 complex))”: the “Fold Improvement over BCY9173, EC50 (nM)” value is 0.2 fold and the “Fold Improvement over Emax” value is recorded as 0.9 fold.
On the same counts, the results for “BCY12729: EphA2:CD137 1:2; BCY9594 + 2x BCY12352; linker N-(acid-PEG3)-N-bis(PEG3-azide) (peptide 1 A[hArg]DC[Hyp]LVNPLCLHP[dD]W[hArg]C; peptide 2 Ac-C[tBuAla]PE[dK(PYA)]PYCFADPY[Nle][Cysteamide]; linker I:4-I:11-I:18 via TATA (inferred); linker II:1-II:8-II:15 via TATA; linker II:N-II:5 via N‑(acid-PEG3)‑N‑bis(PEG3-azide); not fully specified (N-terminus); reading uncertain; also: chain 2 twice (1:2 complex))” are 0.5 fold and 1.6 fold.
In the same order, the values of “BCY12731: EphA2:CD137 1:2; BCY9594 + 2x BCY12354; linker N-(acid-PEG3)-N-bis(PEG3-azide) (peptide 1 A[hArg]DC[Hyp]LVNPLCLHP[dD]W[hArg]C; peptide 2 [Mpa][tBuAla]PE[dK(PYA)]PYCFADPY[Nle][Cysteamide]; linker I:4-I:11-I:18 via TATA (inferred); linker II:1-II:8-II:15 via TATA; not fully specified (N-terminus); reading uncertain; also: chain 2 twice (1:2 complex), linker at chain B 5 to a chain's N-terminus via N-(acid-PEG3)-N-bis(PEG3-azide))” are 0.2 fold and 1.5 fold.
As for “BCY12732: EphA2:CD137 1:2; BCY9594 + 2x BCY12360; linker N-(acid-PEG3)-N-bis(PEG3-azide) (peptide 1 A[hArg]DC[Hyp]LVNPLCLHP[dD]W[hArg]C; peptide 2 {Palmitoyl-γGlu-γGlu}-C[tBuAla]PE[dK(PYA)]PYCFADPY[Nle]C; linker I:4-I:11-I:18 via TATA (inferred); linker II:1-II:8-II:15 via TATA; not fully specified (N-terminus); reading uncertain; also: chain 2 twice (1:2 complex), linker at chain B 5 to a chain's N-terminus via N-(acid-PEG3)-N-bis(PEG3-azide))”, the “Fold Improvement over BCY9173, EC50 (nM)” value amounted to 0.5 fold and the “Fold Improvement over Emax” value is 0.4 fold.
With “BCY13279: EphA2:CD137 1:2; BCY13125 (C-term dLys) + 2x BCY8928; linker N-(acid-PEG3)-N-bis(PEG3-azide) (peptide 1 Ac-C[Hyp]LVNPLCLHP[dD]W[hArg]CL[dH]G[dK]; peptide 2 Ac-C[tBuAla]PE[dK](Pent4ynoyl)PYCFADPY[Nle]CA; linker I:1-I:8-I:15 via TATA; linker II:1-II:8-II:15 via TATA (inferred); not fully specified (bridges); also: linker N-(acid-PEG3)-N-bis(PEG3-azide) on C-terminal dK of chain 1, joins two chain 2 copies (2x BCY8928) via PYA triazoles)”, the “Fold Improvement over BCY9173, EC50 (nM)” value is recorded as 4.74 fold and the “Fold Improvement over Emax” value came out at 2.08 fold.
As to “BCY14050: EphA2:CD137 1:2; BCY13918 + 2x BCY8928; linker N-(acid-PEG3)-N-bis(PEG3-azide) (peptide 1 A[hArg]DC[Hyp]LVNPLCL[His(τ-Me)]P[dD]W[hArg]C; peptide 2 Ac-C[tBuAla]PE[dK](PYA″)PYCFADPY[Nle]CA; linker I:4-I:11-I:18, II:1-II:8-II:15 via TATA (inferred); not fully specified (N-terminus, bridges); also: 2x chain 2 (2x BCY8928) on linker)”, the “Fold Improvement over BCY9173, EC50 (nM)” value is listed as 2.05 fold and the “Fold Improvement over Emax” value is given as 1.91 fold.
In the same order, the values of “BCY14051: EphA2:CD137 1:2; BCY13919 + 2x BCY8928; linker N-(acid-PEG3)-N-bis(PEG3-azide) (peptide 1 A[hArg]DC[Hyp]LVNPLCL[Ala(4-thiazolyl)]P[dD]W[hArg]C; peptide 2 Ac-C[tBuAla]PE[dK](PYA″)PYCFADPY[Nle]CA; linker I:4-I:11-I:18, II:1-II:8-II:15 via TATA (inferred); not fully specified (N-terminus, bridges); also: 2x chain 2 (2x BCY8928) on linker)” are 3.15 fold and 1.88 fold.
On the same counts, the results for “BCY14052: EphA2:CD137 1:2; BCY13920 + 2x BCY8928; linker N-(acid-PEG3)-N-bis(PEG3-azide) (peptide 1 A[hArg]DC[Hyp]LVNPLCLFP[dD]W[hArg]C; peptide 2 Ac-C[tBuAla]PE[dK](PYA″)PYCFADPY[Nle]CA; linker I:4-I:11-I:18 via TATA; linker II:1-II:8-II:15 via TATA (inferred); not fully specified (N-terminus, bridges); also: 2x chain 2 (2x BCY8928) on linker)” are 4.16 fold and 1.89 fold.
On the same counts, the results for “BCY14334: EphA2:CD137 1:2; BCY14313 + 2x BCY8928; linker N-(acid-PEG3)-N-bis(PEG3-azide) (peptide 1 A[hArg]DC[Hyp]LVNPLCLKP[dD]W[hArg]C; peptide 2 Ac-C[tBuAla]PE[dK](Pent4ynoyl)PYCFADPY[Nle]CA; linker I:4-I:11-I:18, II:1-II:8-II:15 via TATA (inferred); not fully specified (some residues, N-terminus); also: 1:2 complex: chain 1 N-terminus joined to dLys(PYA)5 of two chain 2 copies via N-(acid-PEG3)-N-bis(PEG3-azide) linker)” are 7.21 fold and 1.62 fold.
“BCY14335: EphA2:CD137 1:2; BCY14327 (Lys 8) + 2x BCY8928; linker N-(acid-PEG3)-N-bis(PEG3-azide) (peptide 1 {Palmitoyl‑Glu‑LysN3-Pent4ynoyl}-A[hArg]DC[Hyp]LVNPLCLKP[dD]W[hArg]C; peptide 2 Ac-C[tBuAla]PE[dK](Pent4ynoyl)PYCFADPY[Nle]CA; linker I:4-I:11-I:18, II:1-II:8-II:15 via TATA (inferred); not fully specified (some residues); also: 1:2 complex: linker bis(PEG3-azide) clicked to dLys(PYA)4 of two BCY8928 copies, one copy shown)”: the “Fold Improvement over BCY9173, EC50 (nM)” value is on record as 7.14 fold and the “Fold Improvement over Emax” value is reported as 0.94 fold.
“I: ADC[Hyp]LVNPLCLEP[dD]WTC-NH2 / II: Ac-C[tBuAla]PE[dK]PYCFADPY[Nle]CA-NH2 / III: Ac-C[tBuAla]PE[dK]PYCFADPY[Nle]CA-NH2 (linker I:3-I:10-I:17, II:1-II:8-II:15, III:1-III:8-III:15 via TATA; linker I:N-II:5-III:5 via X1) [BCY13282]”: the fold induction is 40.
With “I: A[hArg]DC[Hyp]LVNPLCLEP[dA]WTC-NH2 / II: Ac-C[tBuAla]PE[dK]PYCFADPY[Nle]CA-NH2 / III: Ac-C[tBuAla]PE[dK]PYCFADPY[Nle]CA-NH2 (linker I:4-I:11-I:18, II:1-II:8-II:15, III:1-III:8-III:15 via TATA; linker I:N-II:5-III:5 via X1) [BCY13046]”, the fold induction was determined as 57.6 and the EC50 is 0.17 nM.
On to “I: A[hArg]DC[Hyp]LVNPLCLEP[dD]WTC-NH2 / II: Ac-C[tBuAla]PE[dK]PYCFADPY[Nle]CA-NH2 / III: Ac-C[tBuAla]PE[dK]PYCFADPY[Nle]CA-NH2 (linker I:4-I:11-I:18, II:1-II:8-II:15, III:1-III:8-III:15 via TATA; linker I:N-II:5-III:5 via X1) [BCY13044]”, for which the fold induction was 49.5 and the concentration giving a half-maximal response (EC50) turned out to be 0.21 nM.

Usually EC50 stands for the concentration giving half of the maximal effect. Read a high EC50 as weaker potency.
